The target of assay [1] is T1, Her2 extracellular domain (Her2 ECD) (human, UniProt P04626 23-652).
T1 construct: For the crystal structure it was expressed in CHO cells and the complex was enzymatically deglycosylated; also called biotinylated Her2 ECD
The assay can be described thus: SPR (BIAcore T100), IgG, 1:1 Langmuir fit.
Protocol: (§1) The affinity of each 7C2 IgG variant for Her2 was determined by surface plasmon resonance using a BIAcoreT100. Biacore Series S CMS sensor chips were immobilized with monoclonal mouse anti-human IgG (Fc) antibody (Human antibody capture kit, GE Healthcare). Serial 3-fold dilutions of each 7C2 variant were injected at a flow rate of 30 μl/min. Each sample was analyzed with 3-minute association and 10-minute dissociation. After each injection the chip was regenerated using 3 M MgCl₂. Binding response was corrected by subtracting the RU from a flow cell capturing an irrelevant IgG at similar density. A 1:1 Languir model of simultaneous fitting of kₒₙ and koff was used for kinetics analysis.

The target of assay [2] is T1, Her2 extracellular domain (Her2 ECD). The assay can be described thus: SPR (BIAcore T100), IgG, 1:1 Langmuir fit. The source holds these as a separate data set. (In general: In SPR one partner is held on a chip, and binding of the other changes the refractive index at the surface.)
Protocol: as §1
Assay [3] has the same target. The assay can be described thus: SPR (BIAcore T100), IgG on anti-human IgG (Fc) capture chip, Her2 ECD, 1:1 Langmuir fit.
Protocol: as §1

B1: mu7C2.B9 (antibody, V domains shown)
VH: QVQLQQPGAELVRPGASVKLSCKASGYSFTGYWMNWLKQRPGQGLEWIGMIHPSDSEIRANQKFRDKATLTVDKSSTTAYMQLSSPTSEDSAVYYCARGTYDGGFEYWGQGTTLTVSS
VL: DIVLTQSPASLVVSLGQRATISCRASQSVSGSRFTYMHWYQQKPGQPPKLLIKYASILESGVPARFSGGGSGTDFTLNIHPVEEDDTATYYCQHSWEIPPWTFGGGTKLEIK
notes: Assessed as IgG by SPR on an anti-human IgG (Fc) capture chip; also called murine 7C2.B9; chimeric mu7C2.B9
On to B1, for which binding in assay [1] was characterised by a dissociation constant (Kd) of 8 nM.

B2: 7C2.v2.1 (antibody, V domains shown)
VH: EVQLVQSGAEVKKPGASVKVSCKASGYSFTGYWMNWVRQAPGQGLEWIGMIHPSDSEIRANQKFRDRVTITRDTSTSTAYLELSSLRSEDTAVYYCARGTYDGGFEYWGQGTLVTVSS
VL: DIVMTQSPDSLAVSLGERATINCRASQSVSGSRFTYMHWYQQKPGQPPKLLIKYASILESGVPDRFSGSGSGTDFTLTISSLQAEDVAVYYCQHSWEIPPWTFGQGTKVEIK
notes: Expressed as IgG for SPR; also called hu7C2.v2.1
In the case of B2, in assay [2], the Kd (in general, a measure of binding affinity in units of concentration) amounted to 15.5 nM; the koff (commonly the rate constant with which the complex falls apart) was 0.0041 s⁻¹; the kon (usually the second-order rate constant of association) was 260000 M⁻¹ s⁻¹. In assay [3], this molecule showed a Kd of 16 nM.

B3: 7C2.v1.2 (antibody, V domains shown)
VH: EVQLVQSGAEVKKPGASVKVSCKASGYSFTGYWMNWVRQAPGQGLEWIGMIHPSDSEIRANQKFRDRVTITVDTSTSTAYLELSSLRSEDTAVYYCARGTYDGGFEYWGQGTLVTVSS
VL: DIVMTQSPDSLAVSLGERATINCRASQSVSGSRFTYMHWYQQKPGQPPKLLIYYASILESGVPDRFSGSGSGTDFTLTISSLQAEDVAVYYCQHSWEIPPWTFGQGTKVEIK
In turn, B3 came in with a Kd in assay [3] of 13 nM.

B4: 7C2.v1.3 (antibody, V domains shown)
VH: EVQLVQSGAEVKKPGASVKVSCKASGYSFTGYWMNWLRQAPGQGLEWIGMIHPSDSEIRANQKFRDRATLTVDKSTSTAYLELSSLRSEDTAVYYCARGTYDGGFEYWGQGTLVTVSS
VL: DIVMTQSPDSLAVSLGERATINCRASQSVSGSRFTYMHWYQQKPGQPPKLLIYYASILESGVPDRFSGSGSGTDFTLTISSLQAEDVAVYYCQHSWEIPPWTFGQGTKVEIK
As to B4, the Kd in assay [3] turned out to be 11 nM.

B5: 7C2.v2.3 (antibody, V domains shown)
VH: EVQLVQSGAEVKKPGASVKVSCKASGYSFTGYWMNWLRQAPGQGLEWIGMIHPSDSEIRANQKFRDRATLTVDKSTSTAYLELSSLRSEDTAVYYCARGTYDGGFEYWGQGTLVTVSS
VL: DIVMTQSPDSLAVSLGERATINCRASQSVSGSRFTYMHWYQQKPGQPPKLLIKYASILESGVPDRFSGSGSGTDFTLTISSLQAEDVAVYYCQHSWEIPPWTFGQGTKVEIK
For B5, in assay [3], the Kd came out at 10 nM.

B6: hu7C2.v2.2.LA (antibody, human IgG1, kappa, V domains shown)
VH: EVQLVQSGAEVKKPGASVKVSCKASGYSFTGYWMNWVRQAPGQGLEWIGMIHPLDAEIRANQKFRDRVTITVDTSTSTAYLELSSLRSEDTAVYYCARGTYDGGFEYWGQGTLVTVSS
VL: DIVMTQSPDSLAVSLGERATINCRASQSVSGSRFTYMHWYQQKPGQPPKLLIKYASILESGVPDRFSGSGSGTDFTLTISSLQAEDVAVYYCQHSWEIPPWTFGQGTKVEIKR
notes: IgG1 kappa; Measured as IgG by SPR; also called humanized 7C2.v2.2.LA; hu7C2.v2.2.LA (S53L, S55A)
In turn, B6 registered a Kd in assay [1] of 3 nM.

B7: 7C2.v3.3 (antibody, V domains shown)
VH: EVQLVQSGAEVKKPGASVKVSCKASGYSFTGYWMNWLRQAPGQGLEWIGMIHPSDSEIRANQKFRDRATLTVDKSTSTAYLELSSLRSEDTAVYYCARGTYDGGFEYWGQGTLVTVSS
VL: DIVLTQSPDSLAVSLGERATINCRASQSVSGSRFTYMHWYQQKPGQPPKLLIKYASILESGVPDRFSGSGSGTDFTLTISSLQAEDVAVYYCQHSWEIPPWTFGQGTKVEIK
Consider B7, for which the affinity in assay [3], expressed as Kd, was 9 nM.

B8: 7C2.v3.1 (antibody, V domains shown)
VH: EVQLVQSGAEVKKPGASVKVSCKASGYSFTGYWMNWVRQAPGQGLEWIGMIHPSDSEIRANQKFRDRVTITRDTSTSTAYLELSSLRSEDTAVYYCARGTYDGGFEYWGQGTLVTVSS
VL: DIVLTQSPDSLAVSLGERATINCRASQSVSGSRFTYMHWYQQKPGQPPKLLIKYASILESGVPDRFSGSGSGTDFTLTISSLQAEDVAVYYCQHSWEIPPWTFGQGTKVEIK
notes: Expressed as IgG
B8 came in with a Kd in assay [3] of 15 nM.

B9: hu7C2.v2.2 (antibody, V domains shown)
VH: EVQLVQSGAEVKKPGASVKVSCKASGYSFTGYWMNWVRQAPGQGLEWIGMIHPSDSEIRANQKFRDRVTITVDTSTSTAYLELSSLRSEDTAVYYCARGTYDGGFEYWGQGTLVTVSS
VL: DIVMTQSPDSLAVSLGERATINCRASQSVSGSRFTYMHWYQQKPGQPPKLLIKYASILESGVPDRFSGSGSGTDFTLTISSLQAEDVAVYYCQHSWEIPPWTFGQGTKVEIK
notes: Expressed as IgG; It is the parent of hu7C2.v2.2.LA, which adds S53L and S55A in HVR-H2
B9: the Kd in assay [1] and in assay [3] was 11 nM throughout.

For the origin of these results see patent US20230041134A1 (Genentech, published 2023).
